According to JP2023032631A (dated 2023):

Assays:
[1] = biological target: T1, SARS-CoV-2 RBDタンパク質(Recombinant SARS-CoV-2, S1 Subunit Protein (RBD)、RayBiotech Life, Inc.) (SARS-CoV-2, UniProt P0DTC2 319-541); experiment: ELISA on coated RBD, legend of Figure 2, n=4
[2] = biological target: T1, SARS-CoV-2 RBDタンパク質(Recombinant …; experiment: ELISA, RBD coated 50 ng/well, VHH 50 ng/well, anti-FLAG detection, A450, n=4

Binder	binding result [1]	binding result [2]
抗SARS-CoV-2 RBD VHH抗体 A15 (VHH, not shown: small tags and cut ends, also called A15) VHH: QVQLVESGGALVQPGGSLRLSCAASGFPVNRNTMHWYRQAPGKEREGVAGISSRGDWTYYEDSVKGRFTISRDDARNTVYLQMSSLKPEDTAVYYCAAVGVLSVSAFGWLYWGQGTQVTVGG	binds	
抗SARS-CoV-2 RBD VHH抗体 A02 (VHH, not shown: small tags and cut ends, also called A02) VHH: QVQLVESGGALVQPGGSLRLSCAASGFPVNRNTMHWFRQAPGKEREGVAGISSRGDWTYYEDSVKGRFTISRDDARNTVYLQMNSLKPEDTAVYYCAAYLWLLGGVYWGQGTQVTVGG		binds
抗SARS-CoV-2 RBD VHH抗体 B04 (VHH, not shown: small tags and cut ends, also called B04) VHH: QVQLVESGGALVQPGGSLRLSCAASGFPVNRNTMHWFRQAPGKEREGVAGISSRGDWTYYEDSVKGRFTISRDDARNTVYLQMNSLKPEDTAVYYCAALLWHYGGVYWGQGTQVTAGG	binds	
抗SARS-CoV-2 RBD VHH抗体 B16 (VHH, not shown: small tags and cut ends, also called B16) VHH: QVQLVESGGALVQPGGSLRLSCAASGFPVNHNAVHWFRQAPGKEREGVAGISHLVHRTYYEDSVKGRFTISRDDARNTVYLQMNSLKPEDTAVYYCAAYLWLLGGVYWGQGTQVTVGG	binds	
抗SARS-CoV-2 RBD VHH抗体 B13 (VHH, not shown: small tags and cut ends, also called B13) VHH: QVQLVESGGALVQPGGSLRLSCAASGFPVNHHTMLWFRQAPGKEREGVAGISFRGNWTYYEDSVKGRFTISRDDARNTVYLQMNSLKPEDTAVYYCAAHLWLLGGVYWGQGTQVTVGG	binds	
抗SARS-CoV-2 RBD VHH抗体 B02 (VHH, not shown: small tags and cut ends, also called B02) VHH: QVQLVESGGALVQPGGSLRLSCAASGFPVNRNTMHWFRQAPGKEREGVAGISSRGDWTYYEDSVKGRFTISRDDARNTVYLQMNSLKPEDTAVYYCAALLWNYGGVCWGQGTQVTVGG	binds	
抗SARS-CoV-2 RBD VHH抗体 A03 (VHH, not shown: small tags and cut ends, also called A03) VHH: QVQLVESGGALVQPGGSLRLSCAASGFPVNHNAMHWFRQAPGKERESVAGISHVVYRTYYEDSVKGRFTISRDDARNTVYLQMNSLKPEDTAVYYCAAVALTDLRLYWGQGTQVTVGG		binds
